From patent publication US20170198014A1, “POLYPEPTIDES AND THEIR USE FOR TREATING INFLUENZA” ([…] ITS CENTER FOR COMMERCIALIZATION, priority 2014, published 2017)

B1: ASGMLAISMDTDKISNSFEDCKYFLIELKSAGWTNTIFNDESGKEEIVKMGVDAIICKNISEENYKKFSKKIEIYHAEGDDVNKNISLFLEGELSKISNP (protein)
chain: ASGMLAISMDTDKISNSFEDCKYFLIELKSAGWTNTIFNDESGKEEIVKMGVDAIICKNISEENYKKFSKKIEIYHAEGDDVNKNISLFLEGELSKISNP
B2: GIVNVPNPNTTKYQQLARTAVAIYNYHEQAHLCFVENLNVKEQGNYYYITLAACDDAGKKAIYEAKIGVVESAGWTGVEEFKLV (protein)
chain: GIVNVPNPNTTKYQQLARTAVAIYNYHEQAHLCFVENLNVKEQGNYYYITLAACDDAGKKAIYEAKIGVVESAGWTGVEEFKLV
B3: GIVNVPNCNTTKYQQLARTAVAIYNYHEQAHLTFVENLNCKEQGNYYYITLAATDDAGKKAIYEAKIGVVESAGWTGVEEFKLV (protein)
chain: GIVNVPNCNTTKYQQLARTAVAIYNYHEQAHLTFVENLNCKEQGNYYYITLAATDDAGKKAIYEAKIGVVESAGWTGVEEFKLV

Legend:
[1] = biological target: H1 (A/NewCaledonia/20/1999) (Influenza A virus, UniProt Q6WG00); details: read-out: affinity constant via yeast surface display
[2] = biological target: HA of H3N2 A/Hong Kong/1/1968 (Influenza A virus, UniProt Q91MA7)
[3] = stability after loop truncation and trimerization; details: trimerized, truncation of 3 residues after position 43

| Molecule | Kd [1] | binding when trimerized [2] | stability [3] |
| --- | --- | --- | --- |
| B1 | 23.2 nM | – | – |
| B2 | – | binds extremely tightly | stability is improved |
| B3 | – | binds extremely tightly | stability is improved |
